Test results from patent US5668265, “Bi-directional oligonucleotides that bind thrombin” (Becton Dickinson and Company).

Target: alpha-thrombin (Homo sapiens, UniProt P00734;P00734 P00734:315-363,P00734:364-622)
Assay: SPR; apparent; solution competition vs immobilized consensus aptamer; same buffer, 25 C

Binder | Kd
GGTTGGTGTGGTTGG (structured_DNA) [Compound 10 (consensus thrombin aptamer)] | 0.006 µM
GGTTGGTT (ssDNA) [Compound 12 (single segment)] | 1.5 µM
